In US10254283:

Assays:
[1] = system: Flag-eIF4B (S406A)
[2] = system: Flag-eIF4B (wild type)
[3] = system: positional scanning peptide library Y-A-X-X-X-X-X-S/T-X-X-X-X-A-G-K-K-biotin

Chain of Flag-eIF4B (wild type) (chain, as listed by the source): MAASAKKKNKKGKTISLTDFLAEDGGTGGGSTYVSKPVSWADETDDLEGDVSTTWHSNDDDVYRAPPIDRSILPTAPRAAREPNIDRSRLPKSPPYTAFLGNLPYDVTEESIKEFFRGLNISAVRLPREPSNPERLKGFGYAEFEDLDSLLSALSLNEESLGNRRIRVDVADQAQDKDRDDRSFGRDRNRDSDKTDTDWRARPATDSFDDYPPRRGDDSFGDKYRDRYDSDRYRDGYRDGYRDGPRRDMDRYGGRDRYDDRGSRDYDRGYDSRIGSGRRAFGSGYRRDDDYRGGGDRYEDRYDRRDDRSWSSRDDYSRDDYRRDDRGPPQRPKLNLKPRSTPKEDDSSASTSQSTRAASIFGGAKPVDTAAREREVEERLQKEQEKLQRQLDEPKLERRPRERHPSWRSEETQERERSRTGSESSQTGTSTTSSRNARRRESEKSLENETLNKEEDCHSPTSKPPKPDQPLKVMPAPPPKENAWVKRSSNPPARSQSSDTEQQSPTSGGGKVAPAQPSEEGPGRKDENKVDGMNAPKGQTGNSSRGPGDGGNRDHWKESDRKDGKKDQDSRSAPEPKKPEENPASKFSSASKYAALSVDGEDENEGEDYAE
Chain of Flag-eIF4B (S406A) (chain, as listed by the source S406A): as the sequence (chain, as listed by the source) above, with S406A counted along it

Substance: recombinant full-length MELK
- in vitro kinase assay, phosphorylation of eIF4B at S406 (immunoblot) [1]: This phosphorylation was abolished when wild type (wt) eIF4B was replaced with a mutant eIF4B (S406A)
- in vitro kinase assay, phosphorylation of eIF4B at Ser406 (immunoblot) [2]: Ser406, but not Ser422, of human eIF4B was readily phosphorylated by full-length MELK or the kinase domain of MELK
- in vitro kinase assay, phosphorylation of eIF4B at Ser422 (immunoblot) [2]: MELK does not phosphorylates eIF4B at S422 in vitro
- positional scanning peptide library screen, in vitro phosphorylation with 32P-ATP [3]: an optimal substrate motif for MELK was identified having a strong selection for arginine at the -3 position relative to serine/threonine
